Substrate in this data set: CN1/C(=C/c2cc[n+](CCCCCC(=O)NCCOCCOCCOCCNCc3c[nH]c4nc(N)[nH]c(=O)c34)c3ccccc23)Sc2ccccc21
The data set can be described thus: Estimation of PreQ1-TO substrate kinetics with ECY-A1 catalyzed by TGT. In kind it is biochemical, E. coli. The settings on record: other: estimated from initial rates by fluorescence, 10 μM ECY-A1, 100 nM TGT, 37° C. As to the method: Estimation of PreQ1-TO substrate kinetics with ECY-A1. An estimation of PreQ1-TO substrate kinetics with ECY-A 1 was performed under similar concentrations and conditions to that found from previous kinetic analyses using radiolabeled substrates.^2 A triplicate set of 20 μL reactions was analyzed using a Tecan Saphire-II plate reader in a Greiner 384 well flat bottom plate (VWR, CAT# 89089−584). Each well was prepped with 10 μM ECY-A 1 and a variable amount (from 100 μM to 10 nM in serial ⅓ dilutions) of PreQ1-TO in TGT reaction buffer. The plate was covered and allowed to warm up to 37° C. for 10 minutes. […] Each well was then covered with 10 μL of light mineral oil (to prevent evaporation of water) and the plate was immediately subjected to a fluorescence reading for the first kinetic time point at 37° C. Each well was monitored with an excitation of 501 nm and emission of 531. […] The gain was held fixed and the integration time set to 1 second with 10 reads averaged to each data point collected. The sample was monitored for 30 minutes at 37° C. with a reading taken every 2 minutes. The data was worked up using an ECY-A1-PreQ1-TO calibration curve to convert fluorescence into concentration of product in each sample for each time point to achieve an estimation of the initial rate of each reaction in M^−1/s^−1. […] This curve was analyzed with Graph Pad Prism v. […]

B1: bacterial (E.coli) tRNA guanine transglycosylase (TGT) (Escherichia coli K-12) (protein)
chain: MKFELDTTDGRARRGRLVFDRGVVETPCFMPVGTYGTVKGMTPEEVEATGAQIILGNTFHLWLRPGQEIMKLHGDLHDFMQWKGPILTDSGGFQVFSLGDIRKITEQGVHFRNPINGDPIFLDPEKSMEIQYDLGSDIVMIFDECTPYPADWDYAKRSMEMSLRWAKRSRERFDSLGNKNALFGIIQGSVYEDLRDISVKGLVDIGFDGYAVGGLAVGEPKADMHRILEHVCPQIPADKPRYLMGVGKPEDLVEGVRRGIDMFDCVMPTRNARNGHLFVTDGVVKIRNAKYKSDTGPLDPECDCYTCRNYSRAYLHHLDRCNEILGARLNTIHNLRYYQRLMAGLRKAIEEGKLESFVTDFYQRQGREVPPLNVDHHHHHH
notes: His6 (C); made in house; host or cells: E. coli BL21
By Km is commonly meant the substrate concentration at which the rate is half of its maximum. As a reminder, the kcat is the number of substrate molecules converted per active site and unit of time at saturation. In the case of B1, the Km was 9.8 µM and the catalytic constant (kcat) was 0.0016 s⁻¹.

The values above are taken from US11267842B2, “Enzymatic modification of nucleic acids” (The Regents of the University of California, priority 2015, dated 2022).
